B1: SLC6A17 (parent)
chain: KAVEEELDAEDRPAWNSKLQYILA
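Also: lentivirally expressed fusions sorted by FACS into six bins by GFP to DsRed ratio, PSI derived from sequencing read proportions per bin multiplied by bin number.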

In the series the parent is B1. The experiment in a line: protein stability index of a GFP-peptide fusion (GPS, HEK-293T) (PSI 1-6); higher = more stable. The settings on record: c terminus: a fixed tail appended.
On to KAVEEELDAEDRPMWNSKLQYILA [A14M], for which the protein stability index is 2.1.

Regarding KAVEEELDAEDRPEWNSKLQYILA [A14E], the protein stability index came out at 3.08.

For the variant KAVEEELDAEDIPAWNSKLQYILA [R12I], the protein stability index was 2.47.

Take KAVEEELDAEDHPAWNSKLQYILA [R12H]: the protein stability index stood at 2.41.

Consider KAVEEELDAEDFPAWNSKLQYILA [R12F], for which the protein stability index is 1.76.

Turning to KAVEEELDAEDYPAWNSKLQYILA [R12Y], the protein stability index is 2.2.

KAVEEELDAEDDPAWNSKLQYILA [R12D]: the protein stability index is 3.74.

As for KAVVEELDAEDRPAWNSKLQYILA [E4V], the protein stability index turned out to be 2.03.

On to KAVWEELDAEDRPAWNSKLQYILA [E4W], for which the protein stability index stood at 1.4.

As to KAVQEELDAEDRPAWNSKLQYILA [E4Q], the protein stability index amounted to 2.51.

As to KAVEEELDAEDRPAWNSKLQVILA [Y21V], the protein stability index was found to be 2.08.

For KAVEEELDAEDRPAWNSKLQAILA [Y21A], the protein stability index came to 3.99.

For the variant KAVEEELDAEDRDAWNSKLQYILA [P13D], the protein stability index is 2.72.

Turning to KAVEEELDAEDRSAWNSKLQYILA [P13S], the protein stability index stood at 2.27.

Take KAVEEELDAEDRFAWNSKLQYILA [P13F]: the protein stability index is 2.63.

In the case of KAVEEELDAEDRYAWNSKLQYILA [P13Y], the protein stability index was 2.65.

As to KAVEEELDAEDRNAWNSKLQYILA [P13N], the protein stability index was 2.31.

As to KAVEEELDAEDRPAWNSPLQYILA [K18P], the protein stability index amounted to 3.77.

Turning to IAVEEELDAEDRPAWNSKLQYILA [K1I], the protein stability index was found to be 2.12.

As to YAVEEELDAEDRPAWNSKLQYILA [K1Y], the protein stability index came to 2.05.

Turning to MAVEEELDAEDRPAWNSKLQYILA [K1M], the protein stability index is 2.77.

As for AAVEEELDAEDRPAWNSKLQYILA [K1A], the protein stability index was 2.65.

Turning to TAVEEELDAEDRPAWNSKLQYILA [K1T], the protein stability index turned out to be 2.39.

QAVEEELDAEDRPAWNSKLQYILA [K1Q]: the protein stability index is 2.82.

KHVEEELDAEDRPAWNSKLQYILA [A2H]: the protein stability index was found to be 2.24.

Turning to KCVEEELDAEDRPAWNSKLQYILA [A2C], the protein stability index worked out at 2.21.

Take KYVEEELDAEDRPAWNSKLQYILA [A2Y]: the protein stability index turned out to be 2.51.

KWVEEELDAEDRPAWNSKLQYILA [A2W]: the protein stability index was 1.49.

In the case of KAVETELDAEDRPAWNSKLQYILA [E5T], the protein stability index stood at 2.33.

As to KAVENELDAEDRPAWNSKLQYILA [E5N], the protein stability index amounted to 1.63.

As to KAVEEELDTEDRPAWNSKLQYILA [A9T], the protein stability index came out at 2.82.

With KAVEEELDCEDRPAWNSKLQYILA [A9C], the protein stability index was found to be 2.65.

Consider KAVEEENDAEDRPAWNSKLQYILA [L7N], for which the protein stability index worked out at 3.42.

Consider KAVEEEPDAEDRPAWNSKLQYILA [L7P], for which the protein stability index is 3.64.

Regarding KAVEEELDAQDRPAWNSKLQYILA [E10Q], the protein stability index is 1.67.

As for KAVEEELDAHDRPAWNSKLQYILA [E10H], the protein stability index is 1.84.

KAVEEELDAEDRPAWNAKLQYILA [S17A]: the protein stability index amounted to 2.55.

KAVEEELDAEDRPAWNRKLQYILA [S17R]: the protein stability index was found to be 3.4.

As to KAVEEELDAEDRPAWNLKLQYILA [S17L], the protein stability index was found to be 1.99.

For the variant KAVEEELDAEDRPAWNEKLQYILA [S17E], the protein stability index amounted to 4.48.

Turning to KAVEEELDAEVRPAWNSKLQYILA [D11V], the protein stability index worked out at 2.

As for KAVEEELDAEKRPAWNSKLQYILA [D11K], the protein stability index came out at 2.67.

Consider KAVEEELDAEPRPAWNSKLQYILA [D11P], for which the protein stability index was determined as 2.02.

KAVEEELDAELRPAWNSKLQYILA [D11L]: the protein stability index was found to be 1.79.

Consider KAQEEELDAEDRPAWNSKLQYILA [V3Q], for which the protein stability index came out at 2.91.

With KAWEEELDAEDRPAWNSKLQYILA [V3W], the protein stability index worked out at 1.7.

With KAYEEELDAEDRPAWNSKLQYILA [V3Y], the protein stability index is 2.2.

With KAEEEELDAEDRPAWNSKLQYILA [V3E], the protein stability index came to 2.75.

As to KAVEEELDAEDRPAWNSKLEYILA [Q20E], the protein stability index amounted to 2.89.

Regarding KAVEEELDAEDRPAWNSKLWYILA [Q20W], the protein stability index was 1.56.

For the variant KAVEEELDAEDRPAWNSKLLYILA [Q20L], the protein stability index worked out at 1.88.

In the case of KAVEEKLDAEDRPAWNSKLQYILA [E6K], the protein stability index came to 2.7.

Consider KAVEEALDAEDRPAWNSKLQYILA [E6A], for which the protein stability index came out at 1.86.

Turning to KAVEEELDAEDRPAWNSKLQYILW [A24W], the protein stability index is 2.06.

In the case of KAVEEELDAEDRPAWNSKLQYILI [A24I], the protein stability index is 2.23.

Take KAVEEELDAEDRPAWNSKLQYILG [A24G]: the protein stability index amounted to 3.52.

In the case of KAVEEELDAEDRPAWNSKLQYILC [A24C], the protein stability index was 2.46.

Turning to KAVEEELDAEDRPAWNSKLQYILM [A24M], the protein stability index was found to be 2.06.

As to KAVEEELNAEDRPAWNSKLQYILA [D8N], the protein stability index was determined as 2.46.

KAVEEELVAEDRPAWNSKLQYILA [D8V]: the protein stability index was determined as 2.91.

Take KAVEEELKAEDRPAWNSKLQYILA [D8K]: the protein stability index stood at 2.93.

For KAVEEELGAEDRPAWNSKLQYILA [D8G], the protein stability index stood at 2.07.

For KAVEEELDAEDRPAWNSKMQYILA [L19M], the protein stability index stood at 2.8.

For KAVEEELDAEDRPAWNSKCQYILA [L19C], the protein stability index is 3.56.

Consider KAVEEELDAEDRPAWNSKWQYILA [L19W], for which the protein stability index came out at 2.48.

KAVEEELDAEDRPAWNSKQQYILA [L19Q]: the protein stability index stood at 3.92.

As for KAVEEELDAEDRPAWNSKIQYILA [L19I], the protein stability index is 2.52.

For KAVEEELDAEDRPAWNSKRQYILA [L19R], the protein stability index stood at 3.63.

In the case of KAVEEELDAEDRPAWNSKLQYIRA [L23R], the protein stability index is 4.42.

As for KAVEEELDAEDRPAWNSKLQYINA [L23N], the protein stability index came out at 4.18.

For KAVEEELDAEDRPAWNSKLQYIKA [L23K], the protein stability index is 3.89.

On to KAVEEELDAEDRPAWNSKLQYIVA [L23V], for which the protein stability index amounted to 3.17.

With KAVEEELDAEDRPAWNSKLQYIEA [L23E], the protein stability index came out at 4.91.

As to KAVEEELDAEDRPAWNSKLQYIQA [L23Q], the protein stability index is 3.82.

As to KAVEEELDAEDRPAWNSKLQYIAA [L23A], the protein stability index was 3.9.

In the case of KAVEEELDAEDRPAWNSKLQYIMA [L23M], the protein stability index turned out to be 2.6.

Regarding KAVEEELDAEDRPAWESKLQYILA [N16E], the protein stability index was determined as 2.81.

As for KAVEEELDAEDRPAWISKLQYILA [N16I], the protein stability index was found to be 2.05.

As for KAVEEELDAEDRPAWTSKLQYILA [N16T], the protein stability index is 2.07.

For the variant KAVEEELDAEDRPAWDSKLQYILA [N16D], the protein stability index came out at 3.45.

Regarding KAVEEELDAEDRPAWKSKLQYILA [N16K], the protein stability index is 2.52.

In the case of KAVEEELDAEDRPAHNSKLQYILA [W15H], the protein stability index worked out at 4.06.

On to KAVEEELDAEDRPATNSKLQYILA [W15T], for which the protein stability index worked out at 3.46.

As for KAVEEELDAEDRPAKNSKLQYILA [W15K], the protein stability index turned out to be 3.99.

Consider KAVEEELDAEDRPAYNSKLQYILA [W15Y], for which the protein stability index is 2.77.

KAVEEELDAEDRPASNSKLQYILA [W15S]: the protein stability index came out at 3.92.

As for KAVEEELDAEDRPAWNSKLQYFLA [I22F], the protein stability index is 2.2.

As to KAVEEELDAEDRPAWNSKLQYVLA [I22V], the protein stability index worked out at 3.04.

Turning to KAVEEELDAEDRPAWNSKLQYDLA [I22D], the protein stability index turned out to be 4.86.

In the case of KAVEEELDAEDRPAWNSKLQYMLA [I22M], the protein stability index amounted to 1.79.

With KAVEEELDAEDRPAWNSKLQYCLA [I22C], the protein stability index was 3.13.

As for KAVEEELDAEDRPAWNSKLQYALA [I22A], the protein stability index stood at 3.8.

Take KAVEEELDAEDRPAWNSKLQYPLA [I22P]: the protein stability index is 4.44.

As to KAVEEELDAEDRPAWNSKLQYRLA [I22R], the protein stability index stood at 4.15.

The record behind these values is the supplement of paper PMC10567573.
